Test results from patent US20210389324.

B1: Recombinant ZIKV ns2B/ns3 Protease (protein)
chain: MGSSHHHHHHSSGLVPRGSHMVDMYIERAGDITWEKDAEVTGNSPRLDVALDESGDFSLVEDDGPPMAGGGGSGGGGSGALWDVPAPKEVKKGETTDGVYRVMTRGLLGSTQVGVGVMQEGVFHTMWHVTKGSALRSGEGRLDPYWGDVKQDLVSYSGPWKLDAAWDGHSEVQLLAVPPGERARNIQTLPGIFKTKDGDIGAVALDYPAGTSGSPILDKSGRVIGLYGNGVVIKNGSYVSAITQGRR
B2: Recombinant CHIKV nsP2 protease (protein)
chain: SNAFQNKANVCWAKSLVPILETAGIKLNDRQWSQIIQAFKEDKAYSPEVALNEICTRMYGVDLDSGLFSKPLVSVYYADNHWDNRPGGKMFGFNPEAASILERKYPFTKGKWNINKQICVTTRRIEDFNPTTNIIPVNRRLPHSLVAEHRPVKGERMEWLVNKINGHHVLLVSGYNLALPTKRVTWVAPLGVRGADYTYNLELGLPATLGRYDLVVINIHTPFRIHHYQQCVDHAMKLQMLGGDSLRLLKPGGSLLIRAYGYADRTSERVICVLGRKFRSSRALKPPCVTSNTEMFFLFSNFDNGRRNFTTHVMNNQLNAAFVG

Legend:
[1] = molecular target: T1, CFP-FOXG1-YFP
T1 chain: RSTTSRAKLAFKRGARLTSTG

[2] = molecular target: T2, CFP-NT5M-YFP
T2 chain: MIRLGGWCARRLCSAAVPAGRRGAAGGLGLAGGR

[3] = molecular target: T3, CFP-SFRP1-YFP
T3 chain: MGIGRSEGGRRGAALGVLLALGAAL

[4] = molecular target: T4, CFP-SFRP2-YFP
T4 chain: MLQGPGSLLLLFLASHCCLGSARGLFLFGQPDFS

[5] = molecular target: T5, CFP-SFRP4-YFP
T5 chain: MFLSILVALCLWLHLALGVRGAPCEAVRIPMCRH

[6] = molecular target: T6, CFP-SFVp12-YFP 11:6
T6 chain: DVEELEYHAGAGVVETP

[7] = molecular target: T7, CFP-SFVp12-YFP 19:6
T7 chain: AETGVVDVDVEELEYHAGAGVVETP

Row | Protein | cleavage of CFP-YFP substrate [1] | cleavage of CFP-YFP substrate [2] | cleavage of CFP-YFP substrate [3] | cleavage of CFP-YFP substrate [4] | cleavage of CFP-YFP substrate [5] | cleavage of CFP-YFP substrate [6] | cleavage of CFP-YFP substrate [7]
1 | B1 | ZIKV ns2B-ns3 protease | ZIKV ns2B-ns3 protease | ZIKV ns2B-ns3 protease | Control, not cleaved by ZIKV ns2B-ns3 protease | Control, not cleaved by ZIKV ns2B-ns3 protease | – | –
2 | B2 | – | – | – | – | – | CHIKV and VEEV nsP2 cysteine protease | CHIKV and VEEV nsP2 cysteine protease
